The data set in a line: protein stability index of a GFP-peptide fusion (GPS, HEK-293T) (PSI 1-6); higher = more stable.
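Note: lentivirally expressed fusions sorted by FACS into six bins by GFP to DsRed ratio, PSI derived from sequencing read proportions per bin multiplied by bin number.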

As to FVKDPQGRIIAVFKPKNEEPYGHL [PI4K2A WT], the protein stability index (parent: IOH5080_24, c terminus: a fixed tail appended) was 1.76.

For PCCSSSPEEPLNGESYESCCPTSR, the protein stability index (parent: IOH5115_46, c terminus: a fixed tail appended) turned out to be 3.71.

Turning to RVRSLETENRRLESKIREHLEKKG, the protein stability index (parent: IOH2946_17, c terminus: a fixed tail appended) worked out at 4.39.

THTKEQILELVVLEQFVAILPKEL: under “parent: IOH4871_15, c terminus: a fixed tail appended”, the protein stability index was found to be 2.8.

As to YQGGPPRPPMGMRPPVMSQGGRY, the protein stability index (parent: IOH3584_75, c terminus: native) was found to be 1.94.

Regarding EAEEEELRAELTKVEEEIVTLRQV [TPD52L2 WT], the protein stability index (parent: IOH3163_8, c terminus: a fixed tail appended) stood at 4.06.

Regarding FQPQPVQPQQGYIPPMAQPGLPPV, for the setting “parent: IOH3584_22, c terminus: a fixed tail appended”, the protein stability index came out at 3.18.

For the protein YQSKGYNDDYYEESYFTTRTYGEP [EMD WT], where the note is “parent: IOH4676_15, c terminus: a fixed tail appended”, the protein stability index came out at 2.23.

As to IRRAYPDANLLNDRVLRAMLKAEE, the protein stability index (parent: IOH1962_3, c terminus: a fixed tail appended) was found to be 2.62.

Consider LSKEYWDCLEGKKSKHAPRGTHLW, for which the protein stability index (parent: IOH4879_43, c terminus: a fixed tail appended) was determined as 2.74.

FGEDYYGPSRSRHRRRSRERGPYR [CLK3 WT]: the protein stability index (parent: IOH4008_14, c terminus: a fixed tail appended) turned out to be 2.64.

As for TVPEILVHNIVIFMRTSVKISYIG, the protein stability index (parent: IOH3247_35, c terminus: a fixed tail appended) worked out at 3.44.

For DLSRLVNCLTGEGEDTRLSASEMK [CIB1 WT], the protein stability index (parent: IOH3143_22, c terminus: a fixed tail appended) amounted to 3.05.

On to PEAEENKQIIRKHAQTFVALCATD, for which, under “parent: IOH1962_29, c terminus: a fixed tail appended”, the protein stability index worked out at 2.89.

Take FPKKLAFAYLEDLHSEFDEQHGKK: the protein stability index (parent: IOH3957_14, c terminus: a fixed tail appended) came out at 2.61.

Take FPSAGQAQAAVQGPVGTDFKPLNS: where the note is “parent: IOH3584_46, c terminus: a fixed tail appended”, the protein stability index worked out at 3.51.

Take NKLLLSIIILLELAILGGLVYYKF: where the note is “parent: IOH5143_35, c terminus: a fixed tail appended”, the protein stability index worked out at 2.46.

For the protein YGETCFPKGRFERKRNPSRKKQHI, the protein stability index (parent: IOH4871_39, c terminus: a fixed tail appended) stood at 2.65.

For the protein GRKRRQTSMTDFYHSKRRLIFSKR, where the note is “parent: IOH5068_24, c terminus: a fixed tail appended”, the protein stability index is 3.14.

Turning to YNIATRRKALKNPSEEYGKILEVV [MLH1 WT], for the setting “parent: IOH3190_27, c terminus: a fixed tail appended”, the protein stability index was found to be 2.51.

As to HIFPASRWEPYDPEKKWDKYTIR, the protein stability index (parent: IOH4655_56, c terminus: native) was 2.29.

With YDPDYIQCPYCQRRFNENAADRHI [FAM164A WT], for the setting “parent: IOH3371_20, c terminus: a fixed tail appended”, the protein stability index came out at 4.12.

TCADRDNLTRRFSDLGFEVKCFND [CASP6 WT]: the protein stability index (parent: IOH3453_12, c terminus: a fixed tail appended) stood at 3.21.

For EEEDLRRRLKYFFMSPCDKFRAKG [MCOLN1 WT], the protein stability index (parent: IOH4733_7, c terminus: a fixed tail appended) was found to be 2.28.

In the case of EAGGRFVAFSGEGQSLRKKGRKP [UFD1L WT], the protein stability index (parent: IOH4744_50, c terminus: native) came to 1.91.

KSQDLAKIMADIRAQYDELARKNR: under “parent: IOH2946_41, c terminus: a fixed tail appended”, the protein stability index is 2.6.

As for NIVEYLIQEQPGQEQVAGGEAQPG, the protein stability index (parent: IOH5115_39, c terminus: a fixed tail appended) came to 4.27.

Regarding YVTTNVSLIPPRSEQLVNFTGKAE, under “parent: IOH3247_29, c terminus: a fixed tail appended”, the protein stability index turned out to be 1.77.

Turning to ANETLAEMEEELRYAPLSFRNPMM, under “parent: IOH5143_10, c terminus: a fixed tail appended”, the protein stability index was found to be 1.94.

Turning to QMAKKAEAFQLYQEAAQLDMLLEK [FLOT1 WT], the protein stability index (parent: IOH4826_57, c terminus: a fixed tail appended) was 1.75.

As to LAPIHKLEEALYEYQPLQIETYGP, the protein stability index (parent: IOH3100_40, c terminus: a fixed tail appended) was 1.96.

Consider YTGPSSSGRFAGREWYYGNVTRHQ, for which the protein stability index (parent: IOH4659_46, c terminus: a fixed tail appended) turned out to be 1.78.

On to CHICHKKLYTGPGLAIHCMQVHKE, for which, where the note is “parent: IOH3584_7, c terminus: a fixed tail appended”, the protein stability index was determined as 3.29.

Take RRQTSMTDFYHSKRRLIFSKRKP: for the setting “parent: IOH5068_25, c terminus: native”, the protein stability index came out at 2.54.

Consider PQVRDWSHYFKIIEDLRAQIFANT, for which the protein stability index (parent: IOH2946_21, c terminus: a fixed tail appended) stood at 2.07.

As to AKQLFRKLNEQSPTRCTLEAGAMT, the protein stability index (parent: IOH3957_7, c terminus: a fixed tail appended) was 2.07.

As to LEEALYEYQPLQIETYGPHVPELE, the protein stability index (parent: IOH3100_41, c terminus: a fixed tail appended) is 2.7.

As for FTGRDSITCLTCQGTGYIPTEQVN, where the note is “parent: IOH3247_8, c terminus: a fixed tail appended”, the protein stability index was found to be 1.83.

Take KALEILRKDFSELRSAGVEQLMYI: the protein stability index (parent: IOH4655_39, c terminus: a fixed tail appended) came out at 2.56.

As to AAGGVPGGGSNNGKTPVCHQCHKV [PDLIM7 WT], the protein stability index (parent: IOH4706_45, c terminus: a fixed tail appended) stood at 2.61.

As to RAQYDELARKNREELDKYWSQQIE, where the note is “parent: IOH2946_43, c terminus: a fixed tail appended”, the protein stability index amounted to 3.04.

KKREKQREQMEQMKQRIAEENIMK: the protein stability index (parent: IOH4655_4, c terminus: a fixed tail appended) was found to be 4.67.

Regarding SEQLVNFTGKAEMGGPFSYVYFFC, for the setting “parent: IOH3247_31, c terminus: a fixed tail appended”, the protein stability index came to 2.53.

Consider FLAAEQDIREEIRKVVQSLEQTAR, for which the protein stability index (parent: IOH3571_3, c terminus: a fixed tail appended) amounted to 1.8.

On to YVERKNSLKKGSLVKNLKDTLGLG, for which, under “parent: IOH4659_10, c terminus: a fixed tail appended”, the protein stability index stood at 2.21.

For the protein RVKLISNKGTETDNDPSCVHPIIK, the protein stability index (parent: IOH4271_36, c terminus: a fixed tail appended) worked out at 4.06.

YSLTTSSTHKRSSLRKVKLVRPPQ [RAB40B WT]: the protein stability index (parent: IOH1937_41, c terminus: a fixed tail appended) amounted to 2.95.

Take RLVYKFGKNSSGWKEEEVLQSRN: the protein stability index (parent: IOH4879_62, c terminus: native) turned out to be 2.04.

On to FVELQGFLAAEQDIREEIRKVVQS, for which the protein stability index (parent: IOH3571_2, c terminus: a fixed tail appended) came to 2.08.

Take SRHLNSQVKKTTTRWCHIVRDSDS: for the setting “parent: IOH4271_53, c terminus: a fixed tail appended”, the protein stability index is 2.05.

As for SLREYNDFLEEVEEIVFNLTNNVD, the protein stability index (parent: IOH3100_16, c terminus: a fixed tail appended) came out at 2.

As for AFVVYLETETLVTREAVTEILGIE, for the setting “parent: IOH3571_18, c terminus: a fixed tail appended”, the protein stability index amounted to 2.25.

In the case of GGYFKARLKFPIDYPYSPPAFRFL [CDC34 WT], the protein stability index (parent: IOH1870_10, c terminus: a fixed tail appended) amounted to 2.41.

For the origin of these results see the supplement of paper PMC10567573.
